Assay results reported in patent publication US20240343821A1, “OFATUMUMAB FOR TREATING PEDIATRIC MS” (NOVARTIS AG, priority 2021, published 2024).

Key:
Assay type in all cases: in vivo, human
[1] = Ofatumumab half-life at steady state after subcutaneous administration; details: following subcutaneous administration of repeated 20 mg doses
Method: The half-life of ofatumumab at steady state can be approximately 16 days, in particular following subcutaneous administration of repeated 20 mg doses.

B cells = test: B cell depletion under the claimed ofatumumab dosage regimen; details: loading dose weeks 0, 1, 2; maintenance from week 8 every six weeks
Description: This has been completely surprising because there are significant differences between adult patients and pediatric patients. These differences relate, inter alia, to physiology, metabolism, and body weight. In this context, it is also noted that there is a higher baseline B cell count in children compared to adults and, therefore, it would not have been expected that the claimed dosage regimen is able to consistently deplete B cells in patients as defined in the claims.

[2] = Immunoglobulin (IgG) levels under long-term ofatumumab therapy; details: in the long run, long-term treatment
Description: Generally, side effects and adverse events associated with B cell-depleting therapies such as ocrelizumab therapy are reported to be associated with a reduction of immunoglobulins (e.g. IgG).

[3] = Multiple Sclerosis Impact Scale (MSIS-29) under ofatumumab; details: administration of ofatumumab
Method: The MSIS-29 version 2 is a 29-item, self-administered questionnaire that includes 2 domains: physical and psychological. Responses were captured on a 4-point ordinal scale ranging from 1 (not at all) to 4 (extremely), with higher scores reflecting greater impact on day-to-day life. The MSIS-29 takes about 5 minutes to complete and the questions are designed to determine the patient's views about the impact of MS on their day-to-day life during the past 2 weeks. Reference is made to Hobart J and Cano S (2009), “Improving the evaluation of therapeutic interventions in multiple sclerosis: the role of new psychometric methods”, Health Technol Assess; 13(12):iii, ix-x, […] to Hobart J, Lamping D, Fitzpatrick R, et al (2001), “The Multiple Sclerosis Impact Scale (MSIS-29): a new patient-based outcome measure”, Brain; 124(Pt 5):962-73.

Ofatumumab
half-life at steady state [1]: approximately 16 days | depletion of B cells (B cell count threshold) (B cells): < 8 cells per microliter | reduction of immunoglobulins (e.g. IgG) [2]: does not cause reduction of immunoglobulins | MS impact scale MSIS-29 [3]: advantageous reduction
